Patent publication US20170260272A1 (Novartis, published 2017)
Read-outs that look alike come from different tables or passages of the source.

Legend:
[1] = biological target: T1, APP-Avi-soluble human LOX-1(61-273) (human, UniProt P78380 61-273); assay: SET, IgG vs soluble human LOX-1
Method: (§1) Affinity determination for anti-LOX-1 IgGs using Solution Equilibrium Titration (SET) was basically performed as described in the literature (Friguet et al., 1985 J Immunol Methods 77: 305-319). The assays were performed in a 96-well polypropylene plate (Thermo Scientific, Catalog no. AB-1127) using a constant concentration of LOX-1 antibody mixed with different concentrations of non-biotinylated human or cynomolgus monkey LOX-1 protein and incubated at 22° C. for 14 hours with constant shaking (300 rpm).
(§2) On a pre-blocked MSD plate (Meso Scale Discovery, catalog no. L21SA) biotinylated human or cynomolgus monkey soluble LOX-1 protein was immobilized and washed afterwards. The equilibrium binding reactions were then applied to the MSD plate with immobilized LOX-1 and incubated for 30 min. The unbound material was removed by washing the plate, and the captured antibody was detected by adding Sulfo-tagged goat anti-human IgG (Meso Scale Discovery, catalog no. R3AJ-1). After incubation and washing 1×MSD read buffer T(Meso Scale Discovery, catalog no. R92TC-2) was added and the plate was developed using a Sector Imager 6000 (Meso Scale Discovery). The data were transferred to Excel for analysis and plotted using GraphPad Prism v5. The KD values were determined by fitting the data to the following equation: […]

[2] = biological target: T2, APP-Avi-soluble cynomolgus monkey LOX-1(61-273) (cynomolgus monkey); assay: SET, IgG vs soluble cynomolgus LOX-1
T2 construct: Non-biotinylated as titrated antigen in SET, biotinylated for capture on the plate; also called cyno sLOX-1; cynomolgus monkey soluble LOX-1
Method: as §1, §2

[3] = biological target: T1, APP-Avi-soluble human LOX-1(61-273); assay: competition ELISA: oxLDL binding to plate-bound biotinylated human sLOX-1
Method: NeutrAvidin 384 well plates were coated with 2.5 μg/ml biotinylated LOX-1 diluted in PBS. After blocking with 25% Block Ace (AbD Serotec, Cat#BUF029) in PBS, purified Fabs or IgGs diluted in PBS/1% BSA were added. Subsequently OxLDL (copper-sulfate oxidized LDL, Kalen Biomedical #770202) or MDA-LDL (Academy Biomedical, #20P-UMD-L102) ligand diluted in PBS/1% BSA were allowed to bind to coated LOX-1. Secondary antibody (HRP conjugated sheep anti ApoB IgG; The Binding Site) diluted 1:1,000 in PBS/1% BSA was added followed by addition of TMB substrate (Thermo Scientific). After 10 minutes 1M H2SO4 was added and absorbance was determined at 450 nm. During early screenings, Fab fragments were also tested in this oxLDL binding assay using Fab-containing crude E. coli lysates.
The ability of LOX-1 antibodies to inhibit oxLDL binding to LOX-1 protein was determined using the method described in Example 4. In addition to “high binding OxLDL” from Kalen Biomedical (catalog number 770212-7), which is generated by copper sulfate mediated oxidation of LDL, two other forms of modified LDL were tested in this assay: malondialdehyde modified LDL (Academy Bio-Medical Co. catalog number 20P-MD-L105) and hypochlorite modified LDL. Hypochlorite modified LDL was prepared according to the following procedure. Human LDL (Kalen Biomedical catalog number 770200-4) was diluted with PBS to a final concentration of 0.25 mg/mL. Sodium hypochlorite (NaOCI, JT Baker catalog number 9416-01) was then added to 0.1 mM final concentration. The solution was incubated at room temperate for 4 hours, then quenched by adding L-methionine to a final concentration of reaction by adding 5 μl of 100 mM Mehionine per 200 μl total volume.

[4] = biological target: T1, APP-Avi-soluble human LOX-1(61-273); assay: competition ELISA: AGE-BSA binding to plate-bound biotinylated human sLOX-1
Method: Purified APP-Avi-soluble human soluble LOX-1(61-273) protein prepared as described in Example 1 was biotinylated as described in Example 5. NeutrAvidin 384 well plates were coated with 5 μg/ml biotinylated LOX-1 diluted in bicarbonate buffer (Thermo Scientific). After blocking with PBS/2% BSA/0.1% Tween20/0.1% TritonX-100, purified Fabs or IgGs diluted in PBS/2% BSA/0.1% Tween20/0.1% TritonX-100 were added. Subsequently AGE-BSA ligand (R&D Systems, #BT4127) diluted in PBS/2% BSA/0.1% Tween20/0.1% TritonX-100 was allowed to bind to coated LOX-1. Streptavidin-HRP (R&D Systems) diluted 1:200 in PBS/2% BSA/0.1% Tween20/0.1% TritonX-100 was added followed by addition of TMB substrate (Thermo Scientific). After 10 minutes 1M H₂SO₄ was added and absorbance was determined at 450 nm. Assay performance was affected by the type of BSA used for blocking and diluent solutions. For optimal assay performance, BSA from Sigma (catalog #A4503) was used.

[5] = biological target: T1, APP-Avi-soluble human LOX-1(61-273); assay: SET, IgG vs soluble human LOX-1; remark: listed apart in the source
Method: as §1, §2

[6] = biological target: T3, human LOX-1 (full-length, on cells) (human, UniProt P78380 1-273); assay: flow cytometry: DiI-oxLDL binding to human LOX-1 transfected HEK293 cells
T3 construct: also called huLOX-1/HEK293 cells; human LOX-1 transfected HEK293 cells
Method: The huLOX-1/HEK293 cells were resuspended at 1×10⁶ cells/mL and seeded 50 μL per well into a 96-well V-bottom plate (5×10⁴ cells per well). LOX-1 or irrelevant control antibodies in assay medium (DMEM+10% FBS) were then added to the cells. Typical final antibody concentrations ranged from 0.006 μg/mL to 20 μg/mL. The cells were incubated at 37° C. for 1 hour, then washed twice with warm HBSS. Dil-oxLDL (human dil-labeled “High Oxidized” LDL, Kalen Biomedical, catalog number 770262-9; Dil is 1,1′-dioctadecyl-3,3,3′,3′-tetramethylindocarbocyanine perchlorate) in 50 ul assay medium was then added to a final concentration 30 to 100 μg/mL. The cells were then incubated at 37° C. for 2 hours, and then washed twice with FACS buffer (2% FBS in PBS). Cells were then analyzed for intensity of Di-I fluorescence by flow cytometry, as depicted in FIGS. 2A-2B and Table 3.

[7] = biological target: T3, human LOX-1 (full-length, on cells); assay: cell-based or functional assay

T2 sequence (chain, as listed by the source limits assumed): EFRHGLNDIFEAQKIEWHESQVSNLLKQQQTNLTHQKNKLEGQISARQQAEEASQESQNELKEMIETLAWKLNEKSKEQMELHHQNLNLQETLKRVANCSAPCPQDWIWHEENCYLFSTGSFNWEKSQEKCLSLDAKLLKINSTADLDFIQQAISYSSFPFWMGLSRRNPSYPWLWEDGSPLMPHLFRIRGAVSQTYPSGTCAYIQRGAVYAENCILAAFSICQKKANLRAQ

| Kd [1] [pM] | Kd [2] [pM] | IC50 [3] [pM] | IC50 [4] [pM] | Kd [5] [pM] | IC50 [6] [pM] | Inhibition of ROS generation (IC50, nM) [7] [nM] | Binder |
| --- | --- | --- | --- | --- | --- | --- | --- |
| 0.3 | 0.7 | 4000 | 2100 | 0.3 | – | – | MOR021460 (antibody, human IgG1, lambda, L234A L235A, V domains shown, also called MOR21460) VH: QVQLLESGGGLVQPGGSLRLSCAASGFTFSDYALHWVRQAPGKGLEWVSVISYQGGFIYYADSVKGRFTISRDNSKNTLYLQMNSLRAEDTAVYYCARSPGLTSYHDSWGQGTLVTVSS VL: DIVLTQPPSVSGAPGQRVTISCSGSSSNIGSNYVSWYQQLPGTAPKLLIHSNSHRPSGVPDRFSGSKSGTSASLAITGLQAEDEADYYCQSWDYESERVVFGGGTKLTVLG |
| – | 0.5 | 9000 | – | 0.6 | 700 | 3.5 | MOR22028 (antibody, human IgG1, lambda, L234A L235A, V domains shown, Human IgG1f LALA; also called MOR022028; MOR20228) VH: QVQLLESGGGLVQPGGSLRLSCAASGFTFSDYALHWVRQAPGKGLEWVSVISYAGGFKFYADSVKGRFTISRDNSKNTLYLQMNSLRAEDTAVYYCARSPGLTSYHDSWGQGTLVTVSS VL: QSVLTQPPSVSGAPGQRVTISCSGSSSNIGSNYVSWYQQLPGTAPKLLIHSSSHRPSGVPDRFSGSKSGTSASLAITGLQAEDEADYYCQSWDYESERVVFGGGTKLTVLG |
| – | 0.7 | 11000 | – | 0.3 | 1000 | 4.6 | MOR022025 (antibody, human IgG1, lambda, L234A L235A, V domains shown, Human IgG1f LALA; also called MOR20225; MOR020225) VH: QVQLLESGGGLVQPGGSLRLSCAASGFTFSDYALHWVRQAPGKGLEWVSVISYQGGFIYYADSVKGRFTISRDNSKNTLYLQMNSLRAEDTAVYYCARSPGLTSYHDSWGQGTLVTVSS VL: QSVLTQPPSVSGAPGQRVTISCSGSSSNIGSNYVSWYQQLPGTAPKLLIHSTSHRPSGVPDRFSGSKSGTSASLAITGLQAEDEADYYCQSWDYESERVVFGGGTKLTVLG |
| 0.6 | 0.5 | 4800 | 2400 | 0.65 | – | – | MOR021468 (antibody, human IgG1, lambda, L234A L235A, V domains shown, also called MOR21468) VH: QVQLLESGGGLVQPGGSLRLSCAASGFTFSDYALHWVRQAPGKGLEWVSVISYAGGFKFYADSVKGRFTISRDNSKNTLYLQMNSLRAEDTAVYYCARSPGLTSYHDSWGQGTLVTVSS VL: DIVLTQPPSVSGAPGQRVTISCSGSSSNIGSNYVSWYQQLPGTAPKLLIHSNSHRPSGVPDRFSGSKSGTSASLAITGLQAEDEADYYCQSWDYESERVVFGGGTKLTVLG |
| – | – | 5000 | – | 1.4 | – | – | MOR020152 (antibody, human IgG1, lambda, L234A L235A, V domains shown, also called MOR20152) VH: QVQLVQSGAEVKKPGSSVKVSCKASGGTFSSYAISWVRQAPGQGLEWMGRIIPIFGGANYAQKFQGRVTITADESTSTAYMELSSLRSEDTAVYYCARDPLYRSDYYYHWFDFWGQGTLVTVSS VL: DIALTQPASVSGSPGQSITISCTGTSSDVGNFNYVSWYQQHPGKAPKLMIYGVNNRPSGVSNRFSGSKSGNTASLTISGLQAEDEADYYCAAYGWALDEVVFGGGTKLTVLG |
| – | 7 | 4000 | – | 10 | 400 | 2.2 | MOR22029 (antibody, human IgG1, lambda, L234A L235A, Human IgG1f LALA; also called MOR022029; MOR20229) heavy: not shown light: QSALTQPASVSGSPGQSITISCTGTSSDVGYINYVNWYQQHPGKAPKLMIYEVSNRPSGVSNRFSGSKSGNTASLTISGLQAEDEADYYCASWDWYDNVVFGGGTKLTVLGQPKAAPSVTLFPPSSEELQANKATLVCLISDFYPGAVTVAWKADSSPVKAGVETTTPSKQSNNKYAASSYLSLTPEQWKSHRSYSCQVTHEGSTVEKTVAPTECS |
| 4 | 7 | 2600 | 1600 | 4 | – | – | MOR021453 (antibody, human IgG1, lambda, L234A L235A, also called MOR21453) heavy: not shown light: DIALTQPASVSGSPGQSITISCTGTSSDVGYINYVNWYQQHPGKAPKLMIYEVSNRPSGVSNRFSGSKSGNTASLTISGLQAEDEADYYCASWDWYDNVVFGGGTKLTVLGQPKAAPSVTLFPPSSEELQANKATLVCLISDFYPGAVTVAWKADSSPVKAGVETTTPSKQSNNKYAASSYLSLTPEQWKSHRSYSCQVTHEGSTVEKTVAPTECS |
| – | 7 | 6000 | – | 4 | 500 | 2.5 | MOR22030 (antibody, human IgG1, lambda, L234A L235A, Human IgG1f LALA; also called MOR022030; MOR20230) heavy: not shown light: QSALTQPASVSGSPGQSITISCTGTSSDVGYINYVNWYQQHPGKAPKLMIYEVSNRPSGVSNRFSGSKSGNTASLTISGLQAEDEADYYCASWDWYDNVVFGGGTKLTVLGQPKAAPSVTLFPPSSEELQANKATLVCLISDFYPGAVTVAWKADSSPVKAGVETTTPSKQSNNKYAASSYLSLTPEQWKSHRSYSCQVTHEGSTVEKTVAPTECS |
| – | 4 | 4000 | – | 3 | 800 | 1.9 | MOR22031 (antibody, human IgG1, kappa, L234A L235A, V domains shown, Human IgG1f LALA; also called MOR022031; MOR20231) VH: QVQLVQSGAEVKKPGSSVKVSCKASGGTFSDYAISWVRQAPGQGLEWMGGIMPISGAPYYAQKFQGRVTITADESTSTAYMELSSLRSEDTAVYYCARDSSTSYYYYFDYWGQGTLVTVSS VL: DIQMTQSPSSLSASVGDRVTITCRASQDISSWLAWYQQKPGKAPKLLIYQASNLQSGVPSRFSGSGSGTDFTLTISSLQPEDFATYYCQQIDHTPFTFGQGTKVEIKR |
| – | 5 | 10000 | – | 5 | 600 | 1.6 | MOR22034 (antibody, human IgG1, kappa, L234A L235A, V domains shown, Human IgG1f LALA; also called MOR022034; MOR20234) VH: QVQLVQSGAEVKKPGSSVKVSCKASGGTFSDYAISWVRQAPGQGLEWMGGIVPIVGTANYAQKFQGRVTITADESTSTAYMELSSLRSEDTAVYYCARDSSTSYYYYFDYWGQGTLVTVSS VL: DIQMTQSPSSLSASVGDRVTITCRASQDISSWLAWYQQKPGKAPKLLIYQASNLQSGVPSRFSGSGSGTDFTLTISSLQPEDFATYYCQQMWQFPITFGQGTKVEIKR |
